Source: patent US20050142135A1 (published 2005)
Values belong to the binder of their own block, whether it stands above or below them.

Tests used:
[1] = molecular target: T1, human LH receptor, wild type (human, UniProt P22888 27-699); experiment: 125I-hCG displacement / Scatchard; panels A-C
[2] = molecular target: T1, human LH receptor, wild type; experiment: 125I-hCG displacement / Scatchard; panels D-F
[3] = molecular target: T2, FSHR^F13A (human, UniProt P23945 18-695)
T2 chain: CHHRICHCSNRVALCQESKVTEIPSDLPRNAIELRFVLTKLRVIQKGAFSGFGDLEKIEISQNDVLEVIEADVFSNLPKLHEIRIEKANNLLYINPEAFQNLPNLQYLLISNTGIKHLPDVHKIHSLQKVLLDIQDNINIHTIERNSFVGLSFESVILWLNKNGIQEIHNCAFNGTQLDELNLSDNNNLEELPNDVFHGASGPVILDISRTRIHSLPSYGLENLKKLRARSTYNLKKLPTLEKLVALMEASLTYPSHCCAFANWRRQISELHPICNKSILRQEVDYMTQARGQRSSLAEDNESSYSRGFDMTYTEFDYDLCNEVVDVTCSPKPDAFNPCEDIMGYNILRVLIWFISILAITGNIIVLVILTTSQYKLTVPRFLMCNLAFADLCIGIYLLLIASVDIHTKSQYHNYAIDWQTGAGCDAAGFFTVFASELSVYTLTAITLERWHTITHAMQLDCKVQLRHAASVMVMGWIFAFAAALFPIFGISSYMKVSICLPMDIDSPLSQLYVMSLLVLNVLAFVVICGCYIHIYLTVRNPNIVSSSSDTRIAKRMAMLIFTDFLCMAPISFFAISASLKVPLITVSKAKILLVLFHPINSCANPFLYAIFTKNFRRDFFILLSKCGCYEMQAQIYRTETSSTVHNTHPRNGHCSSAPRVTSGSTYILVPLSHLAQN

[4] = molecular target: T3, FSHR^L14A (human, UniProt P23945 18-695)
T3 chain: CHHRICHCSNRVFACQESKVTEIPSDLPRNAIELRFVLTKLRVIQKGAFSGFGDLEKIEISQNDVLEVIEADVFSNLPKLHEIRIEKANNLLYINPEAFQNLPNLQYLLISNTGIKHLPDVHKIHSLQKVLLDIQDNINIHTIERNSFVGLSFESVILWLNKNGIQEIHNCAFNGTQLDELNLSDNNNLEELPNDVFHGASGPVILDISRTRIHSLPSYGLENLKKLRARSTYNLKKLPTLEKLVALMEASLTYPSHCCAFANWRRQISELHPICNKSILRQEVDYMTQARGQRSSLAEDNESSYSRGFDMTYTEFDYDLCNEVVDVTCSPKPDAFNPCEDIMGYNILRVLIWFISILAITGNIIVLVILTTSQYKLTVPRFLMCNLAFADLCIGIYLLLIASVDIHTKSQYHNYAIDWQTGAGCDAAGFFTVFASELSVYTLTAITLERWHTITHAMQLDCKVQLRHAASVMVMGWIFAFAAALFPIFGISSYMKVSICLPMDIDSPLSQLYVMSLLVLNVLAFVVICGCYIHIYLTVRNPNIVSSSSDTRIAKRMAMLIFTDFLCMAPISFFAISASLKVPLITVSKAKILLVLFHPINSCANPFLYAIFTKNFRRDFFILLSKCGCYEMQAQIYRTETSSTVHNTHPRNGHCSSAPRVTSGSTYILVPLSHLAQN

[5] = molecular target: T4, FSHR^S9A (human, UniProt P23945 18-695)
T4 chain: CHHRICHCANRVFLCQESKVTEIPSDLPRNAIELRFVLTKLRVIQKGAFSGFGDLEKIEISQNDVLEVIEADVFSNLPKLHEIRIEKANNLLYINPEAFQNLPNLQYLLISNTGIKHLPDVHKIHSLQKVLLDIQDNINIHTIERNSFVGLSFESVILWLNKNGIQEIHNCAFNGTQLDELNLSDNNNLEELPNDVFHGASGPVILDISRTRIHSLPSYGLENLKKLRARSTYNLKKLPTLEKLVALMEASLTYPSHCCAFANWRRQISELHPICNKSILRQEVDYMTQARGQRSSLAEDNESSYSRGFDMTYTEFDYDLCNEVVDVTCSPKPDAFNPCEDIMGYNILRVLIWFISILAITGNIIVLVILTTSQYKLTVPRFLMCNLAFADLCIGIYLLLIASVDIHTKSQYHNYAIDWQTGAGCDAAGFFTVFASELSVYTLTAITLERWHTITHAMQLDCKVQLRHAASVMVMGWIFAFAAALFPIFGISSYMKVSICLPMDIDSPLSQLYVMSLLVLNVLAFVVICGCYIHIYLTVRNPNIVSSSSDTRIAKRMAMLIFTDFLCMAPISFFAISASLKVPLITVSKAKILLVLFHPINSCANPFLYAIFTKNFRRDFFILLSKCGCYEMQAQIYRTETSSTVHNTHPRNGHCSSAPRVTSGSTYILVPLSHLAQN

[6] = molecular target: T5, FSHR^V12A (human, UniProt P23945 18-695)
T5 chain: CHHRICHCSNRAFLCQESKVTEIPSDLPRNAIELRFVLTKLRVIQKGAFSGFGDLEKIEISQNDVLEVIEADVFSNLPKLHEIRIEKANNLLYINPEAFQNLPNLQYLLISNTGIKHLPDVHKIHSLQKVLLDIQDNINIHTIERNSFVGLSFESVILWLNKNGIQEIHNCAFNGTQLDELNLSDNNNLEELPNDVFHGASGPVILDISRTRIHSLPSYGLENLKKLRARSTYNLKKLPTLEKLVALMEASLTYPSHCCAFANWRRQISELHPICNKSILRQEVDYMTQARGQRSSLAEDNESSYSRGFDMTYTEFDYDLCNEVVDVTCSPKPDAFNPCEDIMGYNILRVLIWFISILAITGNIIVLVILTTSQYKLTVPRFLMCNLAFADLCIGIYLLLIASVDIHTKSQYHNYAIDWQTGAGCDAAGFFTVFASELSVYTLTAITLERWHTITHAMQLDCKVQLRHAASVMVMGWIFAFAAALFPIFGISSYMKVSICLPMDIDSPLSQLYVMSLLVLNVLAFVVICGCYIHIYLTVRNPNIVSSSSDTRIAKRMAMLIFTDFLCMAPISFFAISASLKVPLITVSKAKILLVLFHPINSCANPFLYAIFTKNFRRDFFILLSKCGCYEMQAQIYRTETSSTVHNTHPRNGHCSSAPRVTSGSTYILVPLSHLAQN

[7] = molecular target: T6, FSHR^N10A (human, UniProt P23945 18-695)
T6 chain: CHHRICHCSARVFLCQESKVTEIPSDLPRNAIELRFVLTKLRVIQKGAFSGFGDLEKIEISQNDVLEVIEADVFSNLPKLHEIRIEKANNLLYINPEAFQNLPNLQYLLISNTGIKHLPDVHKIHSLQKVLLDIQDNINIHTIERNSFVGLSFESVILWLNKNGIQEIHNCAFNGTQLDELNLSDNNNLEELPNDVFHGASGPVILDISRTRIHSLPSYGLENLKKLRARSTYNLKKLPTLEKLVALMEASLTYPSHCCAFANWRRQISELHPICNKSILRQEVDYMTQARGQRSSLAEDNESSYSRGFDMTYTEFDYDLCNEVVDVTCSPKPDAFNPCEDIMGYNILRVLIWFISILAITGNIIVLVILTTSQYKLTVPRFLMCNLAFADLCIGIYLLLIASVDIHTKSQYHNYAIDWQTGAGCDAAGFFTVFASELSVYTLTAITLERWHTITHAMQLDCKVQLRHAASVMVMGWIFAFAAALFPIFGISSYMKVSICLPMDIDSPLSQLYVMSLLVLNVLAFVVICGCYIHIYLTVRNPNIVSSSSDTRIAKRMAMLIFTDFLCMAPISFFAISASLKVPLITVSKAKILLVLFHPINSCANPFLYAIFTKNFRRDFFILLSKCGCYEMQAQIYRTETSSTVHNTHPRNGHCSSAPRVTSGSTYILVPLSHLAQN

[8] = molecular target: T7, FSHR^S18A (human, UniProt P23945 18-695)
T7 chain: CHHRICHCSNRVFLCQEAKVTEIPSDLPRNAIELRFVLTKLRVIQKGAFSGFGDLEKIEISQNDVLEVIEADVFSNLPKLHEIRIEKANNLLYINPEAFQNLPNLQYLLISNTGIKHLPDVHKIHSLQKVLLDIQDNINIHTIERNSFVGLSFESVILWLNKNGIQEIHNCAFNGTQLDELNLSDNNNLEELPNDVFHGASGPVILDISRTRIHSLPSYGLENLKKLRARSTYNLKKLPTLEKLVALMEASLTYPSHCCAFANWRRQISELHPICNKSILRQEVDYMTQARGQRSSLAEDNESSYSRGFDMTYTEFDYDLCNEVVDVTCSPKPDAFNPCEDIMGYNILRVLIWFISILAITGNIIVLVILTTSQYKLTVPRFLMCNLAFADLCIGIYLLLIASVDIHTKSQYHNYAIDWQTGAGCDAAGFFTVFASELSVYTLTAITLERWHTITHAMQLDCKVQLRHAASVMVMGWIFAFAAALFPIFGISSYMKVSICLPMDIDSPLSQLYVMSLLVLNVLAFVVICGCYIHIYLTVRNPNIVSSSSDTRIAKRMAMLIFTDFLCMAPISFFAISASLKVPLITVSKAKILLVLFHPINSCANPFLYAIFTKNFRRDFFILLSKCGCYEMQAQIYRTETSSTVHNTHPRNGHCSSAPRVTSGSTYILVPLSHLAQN

[9] = molecular target: K590 Q; experiment: 125I-FSH displacement / Scatchard
[10] = molecular target: D; experiment: 125I-FSH displacement, Scatchard
[11] = molecular target: P; experiment: 125I-FSH displacement, Scatchard
[12] = molecular target: C; experiment: 125I-FSH displacement, Scatchard
[13] = molecular target: P582 S; experiment: 125I-FSH displacement / Scatchard
[14] = molecular target: P582 L; experiment: 125I-FSH displacement / Scatchard
[15] = molecular target: P582 C; experiment: 125I-FSH displacement / Scatchard
[16] = molecular target: P582 Q; experiment: 125I-FSH displacement / Scatchard
[17] = molecular target: P582 E; experiment: 125I-FSH displacement / Scatchard
[18] = molecular target: P582 R; experiment: 125I-FSH displacement / Scatchard
[19] = molecular target: P582 F; experiment: 125I-FSH displacement / Scatchard
[20] = molecular target: P582 D; experiment: 125I-FSH displacement / Scatchard
[21] = molecular target: P582 Y; experiment: 125I-FSH displacement / Scatchard

T1 sequence (P22888 27-699): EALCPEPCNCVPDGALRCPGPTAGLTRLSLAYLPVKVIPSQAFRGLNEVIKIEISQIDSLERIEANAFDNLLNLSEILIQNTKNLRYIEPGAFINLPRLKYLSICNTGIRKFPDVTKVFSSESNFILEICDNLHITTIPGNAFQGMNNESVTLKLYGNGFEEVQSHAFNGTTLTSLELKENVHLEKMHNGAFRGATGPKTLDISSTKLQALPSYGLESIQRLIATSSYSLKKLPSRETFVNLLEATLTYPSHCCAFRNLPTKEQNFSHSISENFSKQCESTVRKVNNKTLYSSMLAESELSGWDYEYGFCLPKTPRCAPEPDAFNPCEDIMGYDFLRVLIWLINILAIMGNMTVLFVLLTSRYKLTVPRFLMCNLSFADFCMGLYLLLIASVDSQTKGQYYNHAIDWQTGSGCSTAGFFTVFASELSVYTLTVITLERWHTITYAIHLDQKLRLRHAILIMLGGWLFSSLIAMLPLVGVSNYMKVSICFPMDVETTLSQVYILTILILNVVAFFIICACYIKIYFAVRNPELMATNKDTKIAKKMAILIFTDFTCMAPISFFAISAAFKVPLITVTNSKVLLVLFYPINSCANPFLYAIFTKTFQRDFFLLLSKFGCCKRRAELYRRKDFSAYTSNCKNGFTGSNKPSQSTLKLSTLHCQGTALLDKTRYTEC

Kd [1]: 0.412 nM
Kd [2]: 0.412 nM
B1: hCG (ligand)
chain 1: not shown
chain 2: SKEPLRPRCRPINATLAVEKEGCPVCITVNTTICAGYCPTMTRVLQGVLPALPQVVCNYRDVRFESIRLPGCPRGVNPVVSYAVALSCQCALCRRSTTDCGGPKDHPLTCDDPRFQDSSSSKAPPPSLPSPSRLPGPSDTPILPQ

Kd [3]: 2.56 nM
Kd [4]: 1.37 nM
Kd [5]: 2.78 nM
Kd [6]: 2.53 nM
Kd [7]: 1.56 nM
Kd [8]: 3.64 nM
B2: human FSH (ligand)
chain 1: not shown
chain 2: NSCELTNITIAIEKEECRFCISINTTWCAGYCYTRDLVYKDPARPKIQKTCTFKELVYETVRVPGCAHHADSLYTYPVATQCHCGKCDSDSTDCTVRGLGPSYCSFGEMKE

Kd [9]: 19.6 nM
Kd [10]: 1.2 nM
Kd [11]: 1.6 nM
Kd [12]: 3.9 nM
Kd [13]: 4.5 nM
Kd [14]: 1.9 nM
Kd [15]: 2.4 nM
Kd [16]: 6.2 nM
Kd [17]: 6.5 nM
Kd [18]: 4.1 nM
Kd [19]: 4.7 nM
Kd [20]: 3.6 nM
Kd [21]: 4.3 nM
B3: FSH (ligand)
chain 1: not shown
chain 2: NSCELTNITIAIEKEECRFCISINTTWCAGYCYTRDLVYKDPARPKIQKTCTFKELVYETVRVPGCAHHADSLYTYPVATQCHCGKCDSDSTDCTVRGLGPSYCSFGEMKE
